Paper PMC12218847 (Nature Communications, 2025)

B1: His-tagged OsISA1 (amino acids 55–803) (enzyme, Oryza sativa (rice), UniProt D0TZF0 55-803, looked up)
chain: SVASAVEVGVGEDEEEGVEEEEEEVEAVVMPERYALGGACRVLAGMPAPLGATALDGGVNFAVYSAGASAASLCLFTPDDLEADEVTEEVPLDPLFNRTGNVWHVFIEGELHNMLYGYRFDGMFAPHCGQYFDVSNVVVDPYAKAVISRGEYGVPGPGGDCWPQMAGMIPLPYSTFDWQGDLPLRYPQKDLVIYEMHLRGFTKHSSSNVEHPGTYIGAISKLDYLKELGVNCVELMPCHEFNELEYFSCSSKMNFWGYSTINFFSPMIRYSSGGIRNCGRDAINEFKTFVREAHKRGIEVIMDVVFNHTAEGNEKGPILSFRGIDNSTYYMLAPKGEFYNYSGCGNTFNCNHPVVREFIVDCLRYWVTEMHVDGFRFDLASIMTRGCSLWDPVNVYGSPVEGDMTTTGTPLATPPLIDMISNDPILGDVKLIAEAWDAGGLYQVGQFPHWKIWSEWNGKYRDIVRQFIKGTDGFAGGFAECLCGSPHLYQAGGRKPWHSINFVCAHDGFTLADLVTYNKKYNSSNGEDNRDGENHNLSWNCGEEGEFAGLSVKRLRKRQMRNFFVSLMVSQGVPMFYMGDEYGHTKGGNNNTYCHDHYVNYFRWDKKEESSDLQRFCSLMTKFRKQCESLGLADFPTAQRLHWHGHQPGKPDWSETSRFVAFSTKDETKGEIYVAFNASHLPAVVGLPERPGYRWEPLVDTGKPAPYDFLTDDLPDRAHAVHLFSHFLNSNLYPMLSYSSIILELQPDD
B2: His-tagged maize ZmISA1 (residues 45–789) (enzyme, UniProt O22637 45-789, looked up)
chain: AAARPVAEAVQAEEDDDDDDEEVAEERFALGGACRVLAGMPAPLGATALRGGVNFAVYSSGASAASLCLFAPGDLKADRVTEEVPLDPLLNRTGNVWHVFIHGDQLHGMLYGYRFDGVFAPERGQYYDVSNVVVDPYAKAVVSRGEYGVPAPGGSCWPQMAGMIPLPYNKFDWQGDLPLGYHQKDLVIYEMHLRGFTKHNSSKTKHPGTYIGAVSKLDHLKELGVNCIELMPCHEFNELEYFSSSSKMNFWGYSTINFFSPMARYSSSGIRDSGCGAINEFKAFVREAHKRGIEVIMDVVFNHTAEGNEKGPILSFRGIDNSTYYMLAPKGEFYNYSGCGNTFNCNHPVVREFIVDCLRYWVTEMHVDGFRFDLASILTRGCSLWDPVNVYGSPMEGDMITTGTPLVAPPLIDMISNDPILGNVKLIAEAWDAGGLYQVGQFPHWNVWSEWNGKYRDTVRQFIKGTDGFAGAFAECLCGSPQLYQAGGRKPWHSINFVCAHDGFTLADLVTYNSKYNLSNGEDNRDGENHNLSWNCGEEGEFASLSVRRLRKRQMRNFFVCLMVSQGVPMFYMGDEYGHTKGGNNNTYCHDHYVNYFRWDKKEEQSSDLYRFCRLMTKFRKECESLGLEDFPTSERLKWHGHQPGKPDWSEASRFVAFTMKDETKGEIYVAFNTSHLPVVVGLPERSGFRWEPVVDTGKEAPYDFLTDGLPDRAVTVYQFSHFLNSNLYPMLSYSSIILVLRPDV
B3: Arabidopsis AtISA1 (residues 44–783) with C-terminal 6×His-tag (enzyme, UniProt O04196 44-783, looked up)
chain: AKDRRSNEAENIAVVEKPLKSDRFFISDGLPSPFGPTVRDDGVNFSVYSTNSVSATICLISLSDLRQNKVTEEIQLDPSRNRTGHVWHVFLRGDFKDMLYGYRFDGKFSPEEGHYYDSSNILLDPYAKAIISRDEFGVLGPDDNCWPQMACMVPTREEEFDWEGDMHLKLPQKDLVIYEMHVRGFTRHESSKIEFPGTYQGVAEKLDHLKELGINCIELMPCHEFNELEYYSYNTILGDHRVNFWGYSTIGFFSPMIRYASASSNNFAGRAINEFKILVKEAHKRGIEVIMDVVLNHTAEGNEKGPIFSFRGVDNSVYYMLAPKGEFYNYSGCGNTFNCNHPVVRQFILDCLRYWVTEMHVDGFRFDLGSIMSRSSSLWDAANVYGADVEGDLLTTGTPISCPPVIDMISNDPILRGVKLIAEAWDAGGLYQVGMFPHWGIWSEWNGKFRDVVRQFIKGTDGFSGAFAECLCGSPNLYQGGRKPWHSINFICAHDGFTLADLVTYNNKNNLANGEENNDGENHNYSWNCGEEGDFASISVKRLRKRQMRNFFVSLMVSQGVPMIYMGDEYGHTKGGNNNTYCHDNYMNYFRWDKKEEAHSDFFRFCRILIKFRDECESLGLNDFPTAKRLQWHGLAPEIPNWSETSRFVAFSLVDSVKKEIYVAFNTSHLATLVSLPNRPGYRWEPFVDTSKPSPYDCITPDLPERETAMKQYRHFLDANVYPMLSYSSIILLLSPIKDP

What was measured:
[1] = biological target: His-tagged potato StISA1 (residues 48–793) (potato); test: AUC
AUC = biological target: the molecule itself; test: AUC

Row | Molecule | stoichiometry N [1] | stoichiometry N (AUC)
1 | His-tagged potato StISA1 (residues 48–793) (enzyme) | 2 | 
2 | B1 |  | 2
3 | B2 |  | 2
4 | B3 |  | 2
